These are literature values, as cited in publication doi:10.1101/2021.10.04.463074.

The series addresses Asp85 (UniProt position 98, WARYADWLFTT). Particulars: resting (ground) state of bR, protonated Schiff base, all-trans retinal.

As usually defined, the pKa is the pH at which an ionisable group is half protonated. Regarding “Bacteriorhodopsin (bR) (Halobacterium salinarum (named Halobacterium halobium only in titles of cited references))”, the pKa is 2 to 3.
